# Data from patent publication US20110044995A1 (KUMAMOTO UNIVERSITY, published 2011).
# Values joined by “and” are separate entries in the source; they are usually repeats but may differ in a detail not shown here. Identical values can stand only once.
# T1: envelope of HIV-2 strain ROD (HIV-2 strain ROD, UniProt P04577 20-858)
# T1 sequence: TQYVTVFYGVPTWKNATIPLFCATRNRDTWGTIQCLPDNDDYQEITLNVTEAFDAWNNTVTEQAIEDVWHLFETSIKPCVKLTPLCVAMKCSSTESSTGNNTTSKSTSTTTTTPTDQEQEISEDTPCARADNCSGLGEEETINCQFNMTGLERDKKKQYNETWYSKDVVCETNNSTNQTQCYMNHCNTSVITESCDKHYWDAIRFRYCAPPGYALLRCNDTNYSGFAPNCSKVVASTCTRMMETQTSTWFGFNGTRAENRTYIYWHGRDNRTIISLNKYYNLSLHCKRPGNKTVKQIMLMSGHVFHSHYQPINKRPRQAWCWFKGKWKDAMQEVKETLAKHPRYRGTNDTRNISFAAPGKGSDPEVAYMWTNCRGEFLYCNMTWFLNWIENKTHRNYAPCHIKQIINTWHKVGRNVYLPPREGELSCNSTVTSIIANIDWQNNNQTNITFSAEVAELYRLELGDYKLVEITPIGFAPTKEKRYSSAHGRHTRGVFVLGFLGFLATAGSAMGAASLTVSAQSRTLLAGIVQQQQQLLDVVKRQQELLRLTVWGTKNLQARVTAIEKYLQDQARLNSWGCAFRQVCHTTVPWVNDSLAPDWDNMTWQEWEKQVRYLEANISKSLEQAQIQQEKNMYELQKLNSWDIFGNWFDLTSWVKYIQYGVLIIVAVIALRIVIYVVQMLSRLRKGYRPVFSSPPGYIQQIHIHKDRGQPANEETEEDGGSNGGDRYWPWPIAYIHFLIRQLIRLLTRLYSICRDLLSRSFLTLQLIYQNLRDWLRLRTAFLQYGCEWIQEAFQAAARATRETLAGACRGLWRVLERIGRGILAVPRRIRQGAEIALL
# T2: V3 peptide NNT20 (HIV-1 strain JR-FL)
# T2 construct: Coated on the plate at 5 µg/ml
# T2 peptide: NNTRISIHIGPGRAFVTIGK
# B1: 5G2 (antibody, IgG1, V domains shown)
# VH: EVQLVESGGGVVRPGNSLRLSCAASGIIFSTANLHWLRHVPGKGLEWVAIISYDGHRQYYADLVKGRFTISRDNSKNTLHLQMDGLTSDDTAVYYCAKDGADENNLGPAFDYWGRGTLVTVSS
# VL: EIVLTQSPATLSVSPGEGATLSCRASQSISSNLAWYQQKPGQAPRLLIYGASTGATGIPARFSGSGSGTDFTLTISRLEPEDFAIYYCQQYGSLPITFGQGTRLEIKR
# B2: 0.5 γ(1C10) (antibody, IgG1, V domains shown)
# VH: EVQLVESGGGLIQPGGSLRLSCAASGFTVSSSSMSWVRQAPEKGLEWVSVVYSGGNTYNADSVKGRFSISRDNSKNTVYLQMNSLRADDTAVYYCARDLGGGDRSSDYWGQGTLVTVSS
# VL: DIQLTQSPSSLSASVGDRVTITCRASESINTYLNWYQQRPGKAPKLLIYAASTLQTGVPSRFSGSGSGTLFTLTISSLQPEDLATYYCQQSFSTLPYTLGRGTKVEIKG
# notes: Human monoclonal from EBV-immortalised B cells of a long-term nonprogressor; also called 0.5γ(IC10); 1C10(0.5 γ)
# B3: 0.5 δ(3D6) (antibody, IgG1, V domains shown)
# VH: EVQLVESAAEVKKPGASVKVSCKASGYTFTSYGISWVRQAPGQGLQWMGWISAYNGNTKFAQEFKGRVTMTTDTSATTAYMELRSLRSDDTAVYYCARRNYYDSGSYYIRDGDYSMDVWGQGTLVTVSS
# VL: not shown
# notes: also called 3D6(0.5 δ); 0.5 d(3D6)
# B4: 42F9 (antibody, IgG1, V domains shown)
# VH: EVQLVESGGGVVRPGGSLRLSCAASGFAFGEYGMSWVRQAPGKGLEWVSGINWNGGSTGYADSVQGRFTTSRDNAKNSLYLQMNSLRAEDTALYYCARDENYDILTGNYYYGMDVWGQGTTVTVSS
# VL: DIQLTQSPSSLSASVGDRVTITCRASQSISNYLNWYQQKPGKAPKLLIYAASSLQSGVPSRFSGSGSGTDFTLTISSLQPEDFATFYCQQSHSIPYTFGQGTKLEIKR
# Biological target: envelope of HIV-1 clinically isolated strain YKI
# Experiment: cell-based or functional assay
# Parameters: unit not given beside the values
row,Binder,"IC50, neutralizing activity (MTT assay)"
1,B1,1
2,B2,0.01
3,B3,2.4

# Biological target: envelope of HIV-1 clinically isolated strain MTA
# Experiment: cell-based or functional assay
# Parameters: unit not given beside the values
row,Binder,"IC50, neutralizing activity (MTT assay)"
1,B1,0.009
2,B2,0.53
3,B3,0.15

# Biological target: envelope of HIV-1 strain 89.6 (HIV-1 strain 89.6, UniProt Q73372 32-853)
# Experiment: cell-based or functional assay
# Parameters: unit not given beside the values
row,Binder,"IC50, neutralizing activity (MTT assay)"
1,B1,14
2,B2,0.12
3,B3,> 50

# Biological target: envelope of HIV-1 clinically isolated strain MIS
# Experiment: cell-based or functional assay
# Parameters: unit not given beside the values
row,Binder,"IC50, neutralizing activity (MTT assay)"
1,B1,> 50
2,B2,> 50
3,B3,0.15

# Biological target: envelope of HIV-1 clinically isolated strain kKGO
# Experiment: cell-based or functional assay
# Parameters: unit not given beside the values
row,Binder,"IC50, neutralizing activity (MTT assay)"
1,B1,> 50
2,B2,0.32
3,B3,> 50

# Biological target: envelope of HIV-1 strain YU2 (HIV-1 strain YU2, UniProt P35961 32-843)
# Experiment: cell-based or functional assay
# Parameters: unit not given beside the values
row,Binder,"IC50, neutralizing activity (MTT assay)"
1,B1,> 50
2,B2,14
3,B3,> 50

# Biological target: envelope of HIV-1 strain BaL (HIV-1 strain BaL)
# Experiment: cell-based or functional assay
# Parameters: unit not given beside the values
row,Binder,"IC50, neutralizing activity (MTT assay)"
1,B1,5.8
2,B2,0.25
3,B3,> 50

# Biological target: envelope of HIV-1 strain IIIB (HIV-1 strain IIIB)
# Experiment: cell-based or functional assay
# Parameters: unit not given beside the values
row,Binder,"IC50, neutralizing activity (MTT assay)"
1,B1,> 50
2,B2,> 50
3,B3,2

# Biological target: envelope of HIV-1 clinically isolated strain TR43
# Experiment: cell-based or functional assay
# Parameters: unit not given beside the values
row,Binder,"IC50, neutralizing activity (MTT assay)"
1,B1,> 50
2,B2,> 50
3,B3,> 50

# Biological target: envelope of HIV-1 strain SF162 (HIV-1 strain SF162, UniProt P19550 32-847)
# Experiment: cell-based or functional assay
# Parameters: unit not given beside the values
row,Binder,"IC50, neutralizing activity (MTT assay)"
1,B1,0.91
2,B2,0.053
3,B3,2.3

# Biological target: envelope of HIV-1 clinically isolated strain YIS
# Experiment: cell-based or functional assay
# Parameters: unit not given beside the values
row,Binder,"IC50, neutralizing activity (MTT assay)"
1,B1,> 50
2,B2,0.59
3,B3,2.3

# Biological target: envelope of HIV-2 strain EHO (HIV-2 strain EHO)
# Experiment: cell-based or functional assay
# Parameters: unit not given beside the values
row,Binder,"IC50, neutralizing activity (MTT assay)"
1,B1,> 50
2,B2,> 50
3,B3,> 50

# Biological target: envelope of HIV-1 clinically isolated strain MOKW
# Experiment: cell-based or functional assay
# Parameters: unit not given beside the values
row,Binder,"IC50, neutralizing activity (MTT assay)"
1,B1,0.012
2,B2,0.02
3,B3,0.42

# Biological target: T1, envelope of HIV-2 strain ROD
# Experiment: cell-based or functional assay
# Parameters: unit not given beside the values
row,Binder,"IC50, neutralizing activity (MTT assay)"
1,B1,> 50
2,B2,> 50
3,B3,> 50

# Biological target: envelope of HIV-1 strain JR-FL (JRFLwt), on virus (HIV-1 strain JR-FL)
# Experiment: cell-based or functional assay
# Parameters: unit not given beside the values
row,Binder,"IC50, neutralizing activity (MTT assay)"
1,B1,37
2,B2,2.9
3,B3,> 50

# Biological target: envelope of HIV-1 clinically isolated strain KMT
# Experiment: cell-based or functional assay
# Parameters: unit not given beside the values
row,Binder,"IC50, neutralizing activity (MTT assay)"
1,B1,> 50
2,B2,24
3,B3,24

# Biological target: envelope of HIV-1 strain JRFLGPER
# Experiment: cell-based or functional assay
# Parameters: unit not given beside the values
row,Binder,"IC50, neutralizing activity (MTT assay)"
1,B1,> 50
2,B2,26
3,B3,1.2

# Biological target: T3, monomeric gp120 (gp120-SF2; Austral Biologicals) (HIV-1 strain SF2, UniProt P03378 32-509)
# T3 construct: domain: gp120; also called gp120 monomer
# Experiment: gp120-capture ELISA, B cell culture supernatant
row,Binder,binding result
1,B2,binds
2,B4,binds

# Biological target: T3, monomeric gp120 (gp120-SF2; Austral …)
# Experiment: gp120-capture ELISA with or without 0.5 µg/ml sCD4
row,Binder,binding result
1,B1,binds
2,B3,binds

# Biological target: T2, V3 peptide NNT20
# Experiment: V3-peptide ELISA, NNT20 coated at 5 µg/ml
row,Binder,binding result
1,B1,binds
2,B2,binds

# Biological target: envelope of standard panel pseudotyped virus SVPB16 (HIV-1 subtype B)
# Experiment: cell-based or functional assay
row,Binder,IC50 in TZM-bl cells [µg/mL]
1,B1,> 50
2,B2,6.1
3,B3,> 50
4,B4,21

# Biological target: envelope of standard panel pseudotyped virus SVPB18 (HIV-1 subtype B)
# Experiment: cell-based or functional assay
row,Binder,IC50 in TZM-bl cells [µg/mL]
1,B1,11.5
2,B2,1.1
3,B3,> 50
4,B4,> 50

# Biological target: envelope of standard panel pseudotyped virus SVPB17 (HIV-1 subtype B)
# Experiment: cell-based or functional assay
row,Binder,IC50 in TZM-bl cells [µg/mL]
1,B1,50
2,B2,4.5
3,B3,> 50
4,B4,> 50

# Biological target: envelope of standard panel pseudotyped virus SVPB13 (HIV-1 subtype B)
# Experiment: cell-based or functional assay
row,Binder,IC50 in TZM-bl cells
1,B1,> 50 µg/mL
2,B2,> 50 µg/mL and 110 µg/mL
3,B3,> 50 µg/mL
4,B4,> 50 µg/mL

# Biological target: envelope of standard panel pseudotyped virus SVPB11 (HIV-1 subtype B)
# Experiment: cell-based or functional assay
row,Binder,IC50 in TZM-bl cells [µg/mL]
1,B1,> 50
2,B2,35
3,B3,> 50
4,B4,> 50

# Biological target: envelope of standard panel pseudotyped virus SVPB8 (HIV-1 subtype B)
# Experiment: cell-based or functional assay
row,Binder,IC50 in TZM-bl cells [µg/mL]
1,B1,> 50
2,B2,> 150
3,B3,> 50
4,B4,> 50

# Biological target: envelope of standard panel pseudotyped virus SVPB14 (HIV-1 subtype B)
# Experiment: cell-based or functional assay
row,Binder,IC50 in TZM-bl cells [µg/mL]
1,B1,> 50
2,B2,10.5
3,B3,> 50
4,B4,> 50

# Biological target: envelope of standard panel pseudotyped virus SVPB15 (HIV-1 subtype B)
# Experiment: cell-based or functional assay
row,Binder,IC50 in TZM-bl cells [µg/mL]
1,B1,> 50
2,B2,> 150
3,B3,> 50
4,B4,> 50

# Biological target: envelope of standard panel pseudotyped virus SVPB12 (HIV-1 subtype B)
# Experiment: cell-based or functional assay
row,Binder,IC50 in TZM-bl cells
1,B1,> 50 µg/mL
2,B2,> 50 µg/mL and 82 µg/mL
3,B3,> 50 µg/mL
4,B4,> 50 µg/mL

# Biological target: envelope of standard panel pseudotyped virus SVPB6 (HIV-1 subtype B)
# Experiment: cell-based or functional assay
row,Binder,IC50 in TZM-bl cells [µg/mL]
1,B1,> 50
2,B2,38
3,B3,> 50
4,B4,> 50

# Biological target: envelope of standard panel pseudotyped virus SVPB5 (HIV-1 subtype B)
# Experiment: cell-based or functional assay
row,Binder,IC50 in TZM-bl cells [µg/mL]
1,B1,10.1
2,B2,0.23
3,B3,1.2
4,B4,4.5
